Measurements reported in article doi:10.1101/2025.09.26.678709, “MRAP2 potentiates GPCR signaling by conserved mechanisms that are disrupted by obesity-associated genetic variants” (bioRxiv, 2025).
Each block holds one binder with its values, some of them ahead of it.

What was measured:
Details in all cases: partners not purified
HA-Halo-GHSR = target: T1, HA-Halo-GHSR (human, UniProt Q92847 1-366, CA-Sulfo646 dye on the Halo tag); assay: single-molecule pull-down (SiMPull) with photobleaching step counting; two-color: HA-Halo protein (CA-Sulfo646) and FLAG-CLIP protein (BC-DY547) co-expressed in HEK293 (300 ng Halo and 600 ng CLIP plasmid), lysed in 0.5% LMNG/0.05% CHS, captured by biotinylated anti-HA antibody, co-localized spots analysed by TIRF; also reanalysed for monomeric against oligomeric GPCR
T1 construct: growth hormone secretagogue receptor-1a (GHSR), human; N-terminal signal peptide from rat mGluR2 precedes the HA tag in the construct (pRK5 vector); also called ss-HA-Halo-GHSR; growth hormone secretagogue receptor-1a; source: HEK293, transfected, in lysate (LMNG-CHS); not shown: HA, N-terminal, kept; Halo, N-terminal, kept

HA-Halo-MC4R = target: T2, HA-Halo-MC4R (human, UniProt P32245 1-332, CA-Sulfo646 dye on the Halo tag); assay: as above
T2 construct: melanocortin receptor-4 (MC4R), human; N-terminal signal peptide from rat mGluR2 in the construct; also called melanocortin receptor 4; source: HEK293, transfected, in lysate (LMNG-CHS); not shown: HA, N-terminal, kept; Halo, N-terminal, kept
T2 sequence (P32245 whole entry): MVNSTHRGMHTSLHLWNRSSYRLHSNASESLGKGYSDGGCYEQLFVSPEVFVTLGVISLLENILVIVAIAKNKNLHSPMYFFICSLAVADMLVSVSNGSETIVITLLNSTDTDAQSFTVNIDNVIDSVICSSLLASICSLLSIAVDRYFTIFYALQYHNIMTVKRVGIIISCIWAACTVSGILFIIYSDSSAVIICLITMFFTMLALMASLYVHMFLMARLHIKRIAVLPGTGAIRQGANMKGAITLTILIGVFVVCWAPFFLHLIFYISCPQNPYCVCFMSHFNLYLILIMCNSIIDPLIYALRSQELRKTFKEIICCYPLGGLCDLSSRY

GHSR-LgC = target: T3, GHSR-LgC (UniProt Q92847 1-366); assay: split reporter (BiFC, NanoBiT); HEK293 cells transfected with 100 ng GHSR-LgC and MRAP2-SmC, 48 h, Nano-Glo substrate, 37°C; normalised to cells with LgC-empty and SmC-empty
T3 construct: GHSR cloned into the LgBiT-C plasmid (Promega); also called GHSR with LgBiT at the C-terminus; source: HEK293, transfected, in cells; not shown: LgBiT, C-terminal, kept

HA-Halo-MRAP2 = target: T4, HA-Halo-MRAP2 (human, UniProt Q96G30 1-205, CA-Sulfo646 dye on the Halo tag); assay: single-molecule pull-down (SiMPull) with photobleaching step counting; two-color: HA-Halo protein (CA-Sulfo646) and FLAG-CLIP protein (BC-DY547) co-expressed in HEK293 (300 ng Halo and 600 ng CLIP plasmid), lysed in 0.5% LMNG/0.05% CHS, captured by biotinylated anti-HA antibody, co-localized spots analysed by TIRF; also reanalysed for monomeric against oligomeric GPCR
T4 construct: melanocortin receptor-2 accessory protein-2 (MRAP2), human; N-terminal signal peptide from rat mGluR2 in the construct; also called melanocortin receptor-2 accessory protein-2; source: HEK293, transfected, in lysate (LMNG-CHS); not shown: HA, N-terminal, kept; Halo, N-terminal, kept
T4 sequence (looked up): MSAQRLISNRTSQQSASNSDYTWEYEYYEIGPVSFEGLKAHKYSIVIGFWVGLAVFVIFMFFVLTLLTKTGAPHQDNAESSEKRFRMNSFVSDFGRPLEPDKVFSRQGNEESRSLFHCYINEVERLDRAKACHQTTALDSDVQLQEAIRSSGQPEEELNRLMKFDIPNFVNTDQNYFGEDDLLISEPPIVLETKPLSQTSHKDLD

percent of co-localized spots with 2-step bleaching for MRAP2 (HA-Halo-GHSR): 27%
stoichiometry N (HA-Halo-GHSR): 1 MRAP2 per GHSR
percent of co-localized spots with 2-step bleaching for MRAP2 (HA-Halo-MC4R): 29%
stoichiometry N (HA-Halo-MC4R): 1 MRAP2 per MC4R
B1: FLAG-CLIP-MRAP2 (natural protein, human, UniProt Q96G30 1-205, looked up)
chain: T4 sequence (looked up)
modifications: BC-DY547 dye on the CLIP tag
notes: melanocortin receptor-2 accessory protein-2 (MRAP2), human; N-terminal signal peptide from rat mGluR2 in the construct; source: HEK293, transfected, in lysate (LMNG-CHS); not shown: CLIP, N-terminal, kept

fold luminescence over negative controls (GHSR-LgC): 400 fold
B2: MRAP2-SmC (natural protein, UniProt Q96G30 1-205, looked up)
chain: T4 sequence (looked up)
notes: MRAP2; printed as MRAP2-SmC in the results and SmC-MRAP2 in the methods; also called SmC-MRAP2; source: HEK293, transfected, in cells

percent of co-localized spots with 2-step bleaching for MRAP2 (HA-Halo-MRAP2): 22%
stoichiometry N (HA-Halo-MRAP2): 1 MRAP2 per GHSR
B3: FLAG-CLIP-GHSR (receptor, human, UniProt Q92847 1-366, looked up)
chain: MWNATPSEEPGFNLTLADLDWDASPGNDSLGDELLQLFPAPLLAGVTATCVALFVVGIAGNLLTMLVVSRFRELRTTTNLYLSSMAFSDLLIFLCMPLDLVRLWQYRPWNFGDLLCKLFQFVSESCTYATVLTITALSVERYFAICFPLRAKVVVTKGRVKLVIFVIWAVAFCSAGPIFVLVGVEHENGTDPWDTNECRPTEFAVRSGLLTVMVWVSSIFFFLPVFCLTVLYSLIGRKLWRRRRGDAVVGASLRDQNHKQTVKMLAVVVFAFILCWLPFHVGRYLFSKSFEPGSLEIAQISQYCNLVSFVLFYLSAAINPILYNIMSKKYRVAVFRLLGFEPFSQRKLSTLKDESSRAWTESSINT
modifications: BC-DY547 dye on the CLIP tag
notes: growth hormone secretagogue receptor-1a (GHSR), human; N-terminal signal peptide from rat mGluR2 precedes the FLAG tag in the construct (pRK5 vector); also called ss-FLAG-CLIP-GHSR; source: HEK293, transfected, in lysate (LMNG-CHS); not shown: CLIP, N-terminal, kept
